Measured values: the nanobody polyreactivity screen of Harvey et al. (2022)

Test: yeast display, Sf9 membrane polyspecificity reagent, FACS + sequencing; frameworks hold sequencing errors
In short: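 Nanobodies from a synthetic yeast display library (Saccharomyces cerevisiae BJ5465), induced 36–48 hours with galactose, were stained 1 hour at 4 °C with 10% biotinylated, detergent-solubilized Sf9 membrane reagent, enriched on streptavidin microbeads, then FACS-sorted. Anti-HA (expression) and streptavidin (reagent binding) fluorescence set low and high (top ~1%) gates. Polyreactivity labels come from the gate of origin. Genes were colony-PCR amplified, MiSeq 2 × 250 sequenced and filtered by CDR length.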
In the case of “QVQLVESGGGLVQAGGSLRLSCAASGRIFFGYAMGWYRQAPGKERELVATISYNDTSTYYADSVKGRFTISRDNAKNTVYLQMNSLKPEDTAVYYCAKSLGAPASDDYWGQGTQVTVSS”, the “polyreactivity (PSR sort gate)” value is reported as “low polyreactivity”.
With “QVQLVESGGGLVQAGGRLRLSCAHSGIIFFFYAMGWYRQAPGKERELVAAISDDGVSTDYADSVKGRFTISRDNAKNTVYLQMNSLKPEDTAVYYCAAKTERVYPWFSFGYWGQGTQVTVSS” the “polyreactivity (PSR sort gate)” value was “low polyreactivity”.
In the case of “QVQLVDSGGGLVQAGGTLRLSCSASGRTFPTYAMGWYRQAPGKEREVVAAISSSGCSTYYADSVKGRFTISRDNAKNSVYLQMHSLKPEDTAVYYCAALRDRNLNPGYDYWGQGTQLTVSS”, the “polyreactivity (PSR sort gate)” value is reported as “low polyreactivity”.
In the case of “QVQLVESGGGIVQSGGSLRLSCDASGFIFGGNAMGWYIQAPGKERELVARISSGGITSYADSVKGRFTISRDNAKNTVYLHMNSQKPDDTAVYYCAARNGRIAWMNYWGQGTQVTVSS”, the “polyreactivity (PSR sort gate)” value is reported as “low polyreactivity”.
For “QVQLVESGGGLVQAGGSLRLSCAASGITFWYYAMGWSRQEPGKERELVAGISRSDSNTYYADSVKGRFTISRDNAKNTLYLQMNSLKPEDTAVYYCSAYYYRRRYGGKYDYWGQGTQVTVSS”, the “polyreactivity (PSR sort gate)” value was “high polyreactivity”.
For “QVQLVESGGGLVQAGGSLRLSCAASGSIFYAYAMGWYRQAPGKERELVATISRGVNTNYADSVKGRFTISRDNAKNTVYLQMNSLKPEDTAVYYCNARLRYGHGYGYWGQGTQVTVSS”, the “polyreactivity (PSR sort gate)” value was “low polyreactivity”.
For “QVQLVESGGGLVQAGGSLRLSCAASGITFQRNAMGWYRQAPGKERELVAVITSIGGRTYYADSVKGRFTISRDNAKNTVYLQMNSLKPEDTAVYYCNAASATRSADWYDYDYWGQGTQVTVSS”, the “polyreactivity (PSR sort gate)” value was “high polyreactivity”.
For “QVQLVESGGGLDQAGGSLRLSCAASGLIFYTYAMGWYRQAPGKERELVADINRSDGSTYYADSVKGRFTISRDNAKNTVYLQMNSLKPEDTAVYYCAVVGTYYSRFGGRYYYWGQGTQVTVSS”, the “polyreactivity (PSR sort gate)” value was “low polyreactivity”.
With “QVQLVESGGGLVQAGVSLRLSCAASGSIFRHNAMGWYRQAPGKERELVAAINWSGGRTYYADSVKGRFTISRDNAKNTVYLHMNSLKPEDTAVYYCADPVPRSWYDYWGQGTQVTVSS” the “polyreactivity (PSR sort gate)” value was “high polyreactivity”.
For “QVQIVESGGGLVQAGGSLRLSCASYGFTFWGYTMGWYRQAPGKERELVAAITSNGSTYYADSVKGRFTISRDNAQNTVYLQMNSLKPEDTAVYYCAATRGSSEYFYWGQGSQVTVSS”, the “polyreactivity (PSR sort gate)” value was “low polyreactivity”.
For “QVQLVESGGGLVQAGGSLRLSCAASGSTFWDYAMGWYRQAPGKERELVAAISSGGSTNYADSVKGRFTISRDNAKNTVYLQMNSLKPEDTAVYYCAVGYGGYYYWGQGTQVTVSS”, the “polyreactivity (PSR sort gate)” value was “high polyreactivity”.
With “QVQLVESGGGLVQAGGSLRLSCAASGRTFSGNAMGWYRQAPGKEREFVAVISSNGGSTYYADSVKGRFTISRDNAKNTVYLQMNSLKPEDTAVYYCNARYWRGWGGRVSKYGYWGQGTQVTVSS” the “polyreactivity (PSR sort gate)” value was “high polyreactivity”.
For “QVQLVESGGGLVQAGGSLRLSCAASGSIFLHYAMGWYRQAPGKERELVAAISRSGGRTYYADSVKGRFTISRDNAKNTVYLQMNSLKPEDTAVYYCAARVPRYRKDSVWAYYYWGQGPQVTVSS”, the “polyreactivity (PSR sort gate)” value was “high polyreactivity”.
For “QVQLEESGGGIVQAGGSLRLSCAASGRIFRIYAMGWYRKAPGKERELVARITYSGGSTYYADSVKGRFTISRDKAKNTVYLQMNSLKPEDTAVFYCAADWLFYQYGYWGQGTQVTVSS”, the “polyreactivity (PSR sort gate)” value was “low polyreactivity”.
For “QVQLVESGVGLVQAGGSLSLICAASGRIFWPNAMGSYRQAPGKERELVAAISRGGNTNYADSVKGRFTISRDNAKNTVYLQMNSLKPEDTAVYYCAARNFALGYRFDYWGQGTQVTVSS”, the “polyreactivity (PSR sort gate)” value was “high polyreactivity”.
With “QVQLVESGGGVVQAGGSLRLSCAASGSIIWWYAMGWYRQAPGKERELVARMNKRSGSTYYADSVKGRFTISRDNAKNTVYLLRNSLKPEDTAVYYCAATWRSSGIAFFYWGQGTQVTLSS” the “polyreactivity (PSR sort gate)” value was “high polyreactivity”.
In the case of “QVQLVESGGGLVQAGGSLRLSCAASGLTFPYYSMGWYRQAPGKERVLVAAITKSGGSTYADSVKGRFTISRDNAKNTVYLQMNSLKPEDTAVYYCAAGRRKYGTKGRGDYWGQGTQVTVSS”, the “polyreactivity (PSR sort gate)” value is reported as “low polyreactivity”.
In the case of “QVQLVESGGGLVQAGGSLRLSCAASGRIFSRKTMGWYRQAPGKEREFVAAISQSGGRTYYADSVKGRFTISRDNAKNTVYLQMNSLKPEDTAVYYCNAQFARSSGFNYWGQGTQVTVSS”, the “polyreactivity (PSR sort gate)” value is reported as “high polyreactivity”.
With “QVQLVESGGGLVQAGGSLRLSCAASGITLYYYAMGWYRQAPGKEREFVAAITWRGTNTYYADSVKGRFTISRDNAKNTVYLQMNSLKPEDTAVYYCAADYEQRVADYYYWGQGTQVTVSS” the “polyreactivity (PSR sort gate)” value was “low polyreactivity”.
For “QVQLVESGGGLVQAGGSLRLSCAASGRIFSTNAMGWYRQAPGKEWELVAAITRGVSTKYADSVKGRFTISRDNAKNTVYLQMNSLKPEDTAVYYCAARVVWGPESDYWGQGTQVTVSS”, the “polyreactivity (PSR sort gate)” value was “low polyreactivity”.
With “QVQIVESGGGLVQAGGSLRLRCAASGITFSIYAMGWYRQAPGKERELVAAIDSGGGTNYADSVKGRFTISLDNAKNTVYLQMNSLKAEDTAVYYCAADFLKVDWYDYWGQGTQVTVSS” the “polyreactivity (PSR sort gate)” value was “low polyreactivity”.
With “QVQLVESGGGLVQAGGSLRLSCAASGSIFVLYAMGWYRQAPGKERELVAAITSAGSTYYADSVKGRFTISRDNAKNTVYLQMNSLKPEDTAVYYCAARRGASQRRYNYWGQGTQVTVSS” the “polyreactivity (PSR sort gate)” value was “high polyreactivity”.
In the case of “QVQLVESGGGLVQAGGSLRLSCAASGLIFTYNAMGWYRQAPGKERELVASISWGGGSTYYADSVKGRFTISRDNAKHTVYLQMHSLKPEDTAVYYCNAKFKTVHTYGDTIFDRYDYWGQGTQVTVSS”, the “polyreactivity (PSR sort gate)” value is reported as “low polyreactivity”.
For “QVQLVESGGGLVQAGGSLRLSCAASGLIFQHNAMGWYRQAPGKEMELVAAISRSAGSTYYADSVKGRFTISRDKAKNTVYLQMNSLKPEDTAVYYCARQYGYQPVRYGYWGQGTQVTVSS”, the “polyreactivity (PSR sort gate)” value was “low polyreactivity”.
With “QVQLVESGGGLVQAGGSLRLSCAASGSIFYRYAMGWYRQGPGKERELVAGITRGGSTNYADSVKGRFTISRDNAMNTVYLQMNSLKPEDTAVYYCAARSYVYVHYYYWGQGTQVTVSS” the “polyreactivity (PSR sort gate)” value was “high polyreactivity”.
With “QVQLVESGGGLVQAGGSLRLSCAASGITLARNAMGWYRQAPGKERELVASITWSGGTTYYADSVKGRFTISRDNAKNTVYLQMISLKPEDTAVYYCAASAKLHYYRTYRYNYWGQGTQVSVSS” the “polyreactivity (PSR sort gate)” value was “high polyreactivity”.
For “QVQLVESGGGLVQAGGILRLSCAASGSIFYAYAMGWNRQAPGKEAEFVARISGSGGSTYYADSVKGRFTISRDNAKNTVYLQMNSLKPEDTAVYYCAATRERYKYYKRYYWGQGTQVTVSS”, the “polyreactivity (PSR sort gate)” value was “low polyreactivity”.
With “QVQLVESGGGLVQAGGSLRLSCAASGSTFYSYAMGWYRQAHGQERELVAAISYSGGSTYYADSVKGRFTISRDNAKNTVYLQMNSLKPADTAVYYCNARAVYPAGYAYDYWGQGTQVTVSS” the “polyreactivity (PSR sort gate)” value was “high polyreactivity”.
With “QVQLVESGVGLLQAGGSLRLSCADSGRIISGNAMVWYRQAPGKEREMVAAISSGGSTYYADSVKGRFTISRDNAMNTVYLQMNSLKPEATAVFYCNKRRGRKWPGNFSVVKLLMGSWGQGTQVTVSS” the “polyreactivity (PSR sort gate)” value was “low polyreactivity”.
In the case of “QVQLVESGGGLVQAGGSLRLSCAASGSARYAMGWYRQAPGKERELVAAISRRGGSTFYADSVKGRFTISRDNAKNTVYLQMNSLKPEDTAVYYCAADGRISYDYWGQGTQVTVSS”, the “polyreactivity (PSR sort gate)” value is reported as “low polyreactivity”.
In the case of “QVQLVDSGGGLVQAGGILRLSCAASGSTFRYYAMGWYRQAPGKERELVAAITKNGGSTYYADSVKGRFTISRDNAKNTVYLQMNSLKPEDTAVYYCAVQFSYSGWYYVSYYYWGQGTQVTVSS”, the “polyreactivity (PSR sort gate)” value is reported as “high polyreactivity”.
With “QFQLVESGGGLVQAGGSLRLSCAASGRTLYGYAMGWYRQAPGKERELVAVISGRGGSTYYADSVKGRFTISRDNAKNTVYLQMNSLKPEDTAAYFCAAVVHQGLSVRYGYWGQGTQVTVSS” the “polyreactivity (PSR sort gate)” value was “high polyreactivity”.
